Columns and labels:
[1] = tested on: MGO-modified MRJP (MRJP mixture treated with MGO)
[2] = tested on: monomeric form of royalactin
[3] = tested on: native hexamer form of MRJP1

## Cathepsin B from bovine spleen
[1]
  Cathepsin B digestion, native PAGE: Cathepsin B is unable to hydrolyze the protein at pH 7.0 but was able to hydrolyze the lower molecular weight species produced at pH 4.0
[2]
  Cathepsin B digestion (data not shown): the native hexamer form of MRJP1 and the monomeric form of royalactin were readily degraded by this enzyme
[3]
  Cathepsin B digestion (data not shown): the native hexamer form of MRJP1 and the monomeric form of royalactin were readily degraded by this enzyme

— patent US20150337019
